Reference: patent US11795460B2, “Compositions and methods for TTR gene editing and treating ATTR amyloidosis” (Intellia Therapeutics, Inc., priority 2017, dated 2023)
Strand notation (5' to 3'): a small letter for the sugar, then the base; units joined by * are phosphorothioate-linked, units joined directly phosphodiester-linked; [ ] holds rarer units or linkages, { } end groups; capitals alone tell only the bases. m = 2'-O-methyl; r = 2'-OH (RNA)

Test system: off-target genomic sites
Assay: Off-target oligo insertion based assay in HEK293_Cas9 cells, dgRNAs and sgRNAs (Tables 23, 24)
Type: cell-based, human
Details: for # Sites (off-target integration sites detected): Table 24, TTR sgRNAs in HekCas9 cells, insertion detection method; for # Sites in HekCas9 cells (Example 5): Table 30, TTR sgRNAs, repeated from Example 5 for comparison
Procedure: An oligo insertion based assay (See, e.g., Tsai et al., Nature Biotechnology 33, 187-197; 2015) was used to determine potential off-target genomic sites cleaved by Cas9 targeting TTR. Forty-five dgRNAs from Table 1 (and two control guides with known off-target profiles) were screened in the HEK293 Cas9 cells. The human embryonic kidney adenocarcinoma cell line HEK293 constitutively expressing Spy Cas9 (“HEK293_Cas9”) was cultured in DMEM media supplemented with 10% fetal bovine serum and 500 μg/ml G418. Cells were plated at a density of 30,000 cells/well in a 96-well plate 24 hours prior to transfection. Cells were transfected with Lipofectamine RNAiMAX (ThermoFisher, Cat. 13778150) per the manufacturer's protocol. Cells were transfected with a lipoplex containing individual crRNA (15 nM), trRNA (15 nM), and donor oligo with (10 nM) Lipofectamine RNAiMAX (0.3 μL/well) and OptiMem. Cells were lysed 24 hours post transfection and genomic DNA was extracting using Zymo's Quick gDNA 96 Extraction kit (catalog #D3012) following the manufacturer's recommended protocol. The gDNA was quantified using the Qubit High Sensitivity dsDNA kit (Life Technologies). Libraries were prepared per the previously described method in Tsai et al, 2015 with minor modifications. Sequencing was performed on Illumina's MiSeq and HiSeq 2500. The assay identified potential off-target sites for some of the crRNAs which are plotted in FIG. 2.
Additionally, a subset of the guides was assessed for off-target potential as modified sgRNAs in the Hek_Cas9 cells via the oligo based insertion method described above. The off-target results were plotted in FIG. 4.

B1: G000483: TTR sgRNA modified sequence, Human, SEQ ID No. 90; guide sequence of CR005298 (nucleic acid)
guide: mU*mC*mC*rArCrUrCrArUrUrCrUrUrGrGrCrArGrGrArGrUrUrUrUrArGrAmGmCmUmAmGmAmAmAmUmAmGmCrArArGrUrUrArArArArUrArArGrGrCrUrArGrUrCrCrGrUrUrArUrCrAmAmCmUmUmGmAmAmAmAmAmGmUmGmGmCmAmCmCmGmAmGmUmCmGmGmUmGmCmU*mU*mU*mU
- # Sites (off-target integration sites detected): 5
- # Sites in HekCas9 cells (Example 5): 5

B2: G000481: TTR sgRNA modified sequence, Human, SEQ ID No. 88; guide sequence of CR003345 (nucleic acid)
guide: mU*mC*mU*rArGrArArCrUrUrUrGrArCrCrArUrCrArGrGrUrUrUrUrArGrAmGmCmUmAmGmAmAmAmUmAmGmCrArArGrUrUrArArArArUrArArGrGrCrUrArGrUrCrCrGrUrUrArUrCrAmAmCmUmUmGmAmAmAmAmAmGmUmGmGmCmAmCmCmGmAmGmUmCmGmGmUmGmCmU*mU*mU*mU
- # Sites (off-target integration sites detected): 3
- # Sites in HekCas9 cells (Example 5): 3

B3: G000482: TTR sgRNA modified sequence, Human, SEQ ID No. 89; guide sequence of CR003365 (nucleic acid)
guide: mU*mG*mU*rArGrArArGrGrGrArUrArUrArCrArArArGrGrUrUrUrUrArGrAmGmCmUmAmGmAmAmAmUmAmGmCrArArGrUrUrArArArArUrArArGrGrCrUrArGrUrCrCrGrUrUrArUrCrAmAmCmUmUmGmAmAmAmAmAmGmUmGmGmCmAmCmCmGmAmGmUmCmGmGmUmGmCmU*mU*mU*mU
- # Sites (off-target integration sites detected): 13
- # Sites in HekCas9 cells (Example 5): 13

B4: G000494: TTR sgRNA modified sequence, Human, SEQ ID No. 101; guide sequence of CR003360 (nucleic acid)
guide: mG*mU*mG*rArGrUrCrUrGrGrArGrArGrCrUrGrCrArUrGrUrUrUrUrArGrAmGmCmUmAmGmAmAmAmUmAmGmCrArArGrUrUrArArArArUrArArGrGrCrUrArGrUrCrCrGrUrUrArUrCrAmAmCmUmUmGmAmAmAmAmAmGmUmGmGmCmAmCmCmGmAmGmUmCmGmGmUmGmCmU*mU*mU*mU
- # Sites (off-target integration sites detected): 4
- # Sites in HekCas9 cells (Example 5): 4

B5: G000480: TTR sgRNA modified sequence, Human, SEQ ID No. 87; guide sequence of CR003353 (nucleic acid)
guide: mA*mA*mA*rGrGrCrUrGrCrUrGrArUrGrArCrArCrCrUrGrUrUrUrUrArGrAmGmCmUmAmGmAmAmAmUmAmGmCrArArGrUrUrArArArArUrArArGrGrCrUrArGrUrCrCrGrUrUrArUrCrAmAmCmUmUmGmAmAmAmAmAmGmUmGmGmCmAmCmCmGmAmGmUmCmGmGmUmGmCmU*mU*mU*mU
- # Sites (off-target integration sites detected): 11
- # Sites in HekCas9 cells (Example 5): 11

B6: G000485: TTR sgRNA modified sequence, Human, SEQ ID No. 92; guide sequence of CR003336 (nucleic acid)
guide: mC*mC*mU*rCrCrUrCrUrGrCrCrUrUrGrCrUrGrGrArCrGrUrUrUrUrArGrAmGmCmUmAmGmAmAmAmUmAmGmCrArArGrUrUrArArArArUrArArGrGrCrUrArGrUrCrCrGrUrUrArUrCrAmAmCmUmUmGmAmAmAmAmAmGmUmGmGmCmAmCmCmGmAmGmUmCmGmGmUmGmCmU*mU*mU*mU
- # Sites (off-target integration sites detected): 22
- # Sites in HekCas9 cells (Example 5): 22

B7: G000488: TTR sgRNA modified sequence, Human, SEQ ID No. 95; guide sequence of CR003346 (nucleic acid)
guide: mA*mA*mA*rGrUrUrCrUrArGrArUrGrCrUrGrUrCrCrGrGrUrUrUrUrArGrAmGmCmUmAmGmAmAmAmUmAmGmCrArArGrUrUrArArArArUrArArGrGrCrUrArGrUrCrCrGrUrUrArUrCrAmAmCmUmUmGmAmAmAmAmAmGmUmGmGmCmAmCmCmGmAmGmUmCmGmGmUmGmCmU*mU*mU*mU
- # Sites (off-target integration sites detected): 0
- # Sites in HekCas9 cells (Example 5): 0

B8: G000499: TTR sgRNA modified sequence, Human, SEQ ID No. 106; guide sequence of CR005303 (nucleic acid)
guide: mU*mG*mA*rArUrCrCrArArGrUrGrUrCrCrUrCrUrGrArGrUrUrUrUrArGrAmGmCmUmAmGmAmAmAmUmAmGmCrArArGrUrUrArArArArUrArArGrGrCrUrArGrUrCrCrGrUrUrArUrCrAmAmCmUmUmGmAmAmAmAmAmGmUmGmGmCmAmCmCmGmAmGmUmCmGmGmUmGmCmU*mU*mU*mU
- # Sites (off-target integration sites detected): 4
- # Sites in HekCas9 cells (Example 5): 4

B9: G000484: TTR sgRNA modified sequence, Human, SEQ ID No. 91; guide sequence of CR003367 (nucleic acid)
guide: mA*mG*mA*rCrArCrCrArArArUrCrUrUrArCrUrGrGrArGrUrUrUrUrArGrAmGmCmUmAmGmAmAmAmUmAmGmCrArArGrUrUrArArArArUrArArGrGrCrUrArGrUrCrCrGrUrUrArUrCrAmAmCmUmUmGmAmAmAmAmAmGmUmGmGmCmAmCmCmGmAmGmUmCmGmGmUmGmCmU*mU*mU*mU
- # Sites (off-target integration sites detected): 7
- # Sites in HekCas9 cells (Example 5): 7

B10: G000486: TTR sgRNA modified sequence, Human, SEQ ID No. 93; guide sequence of CR003339 (nucleic acid)
guide: mA*mC*mA*rCrArArArUrArCrCrArGrUrCrCrArGrCrArGrUrUrUrUrArGrAmGmCmUmAmGmAmAmAmUmAmGmCrArArGrUrUrArArArArUrArArGrGrCrUrArGrUrCrCrGrUrUrArUrCrAmAmCmUmUmGmAmAmAmAmAmGmUmGmGmCmAmCmCmGmAmGmUmCmGmGmUmGmCmU*mU*mU*mU
- # Sites (off-target integration sites detected): 12
- # Sites in HekCas9 cells (Example 5): 12
